# Earlier results as cited in article PMC2964873.
# Target: plectin-1 95-117 (Homo sapiens) (UniProt Q15149)
# Chain of UniProt Q15149 (Q15149 95-117): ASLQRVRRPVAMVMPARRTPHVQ
substance,measurement,value
Siah (from UniProt Q8IUQ4),Kd,29 nM
